# Experimental data: article PMC5671938, “Multimerin-2 is a ligand for group 14 family C-type lectins CLEC14A, CD93 and CD248 spanning the endothelial pericyte interface” (Oncogene, 2017)
# T1: recombinant CLEC14A extracellular domain with an Fc tag (CLEC14A-ECD-Fc) (human, UniProt Q86T13 22-397)
# T1 construct: CLEC14A, human, extracellular domain; Human IgG Fc alone served as the control for the Fc tag; also called hCLEC14A-ECD-Fc; CLEC14A-Fc
# T1 sequence (looked up): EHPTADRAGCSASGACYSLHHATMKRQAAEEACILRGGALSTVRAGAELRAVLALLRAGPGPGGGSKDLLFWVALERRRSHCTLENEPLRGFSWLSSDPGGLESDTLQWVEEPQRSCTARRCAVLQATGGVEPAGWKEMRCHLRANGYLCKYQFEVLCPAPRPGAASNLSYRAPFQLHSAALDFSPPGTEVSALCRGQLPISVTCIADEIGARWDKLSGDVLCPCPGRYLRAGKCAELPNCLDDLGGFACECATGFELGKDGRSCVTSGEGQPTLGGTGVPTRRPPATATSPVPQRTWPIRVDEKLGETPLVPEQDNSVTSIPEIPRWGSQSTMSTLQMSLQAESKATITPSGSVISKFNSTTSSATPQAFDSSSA
# B1: MMRN2^495-674 expressed and purified from E. coli (blocking experiments) (domain or fragment, human, UniProt Q9H8L6 495-674, looked up)
# chain: QKLYLDLDVIREGQRDATRALEETQVSLDERRQLDGSSLQALQNAVDAVSLAVDAHKAEGERARAATSRLRSQVQALDDEVGALKAAAAEARHEVRQLHSAFAALLEDALRHEAVLAALFGEEVLEEMSEQTPGPLPLSYEQIRVALQDAASGLQEQALGWDELAARVTALEQASEPPRP
# notes: codon optimized synthetic DNA in pET23a between NdeI and NotI; The fragment was made 'with His tag or avitag'; also called MMRN2 peptide; source: E. coli BL21-DE3 pLysS, purified (Nickel-NTA, size exclusion chromatography), endotoxin removed
# Target: T1, recombinant CLEC14A extracellular …
# Assay: flow cytometry on cells; blocking: hCLEC14A-ECD-Fc incubated with 2 x molar excess of MMRN2^495-674 or MMRN2^495-603 for 1 h at 4 °C, then used to stain the HUVEC surface; anti-hFc-FITC
# Details: both partners purified
binder,measurement,value
B1,binding result,binds
